Laboratory results as given in PMC10696041, “Identification of PCPE-2 as the endogenous specific inhibitor of human BMP-1/tolloid-like proteinases” (Nature Communications, 2023).
One block for each binder: values may come before it.

B1: procollagen C-proteinase enhancer-2 with N-terminal 6His-tag (natural protein, human, UniProt Q9UKZ9 24-415, looked up)
chain: QSPERPVFTCGGILTGESGFIGSEGFPGVYPPNSKCTWKITVPEGKVVVLNFRFIDLESDNLCRYDFVDVYNGHANGQRIGRFCGTFRPGALVSSGNKMMVQMISDANTAGNGFMAMFSAAEPNERGDQYCGGLLDRPSGSFKTPNWPDRDYPAGVTCVWHIVAPKNQLIELKFEKFDVERDNYCRYDYVAVFNGGEVNDARRIGKYCGDSPPAPIVSERNELLIQFLSDLSLTADGFIGHYIFRPKKLPTTTEQPVTTTFPVTTGLKPTVALCQQKCRRTGTLEGNYCSSDFVLAGTVITTITRDGSLHATVSIINIYKEGNLAIQQAGKNMSARLTVVCKQCPLLRRGLNYIIMGQVGEDGRGKIMPNSFIMMFKTKNQKLLDALKNKQC
notes: human PCPE-2, called full-length; two mutations of the bought clone (829 G>T, 874 C>A) were corrected; The most widely used PCPE-2 construct of the study; also called PCPE-2; PCPE-2[Nter-6His]; not shown: His6, N-terminal, kept
B3: CUB1CUB2 domains of PCPE-2 generated from PCPE-2 3C (domain or fragment, human, UniProt Q9UKZ9 24-270, looked up)
chain: QSPERPVFTCGGILTGESGFIGSEGFPGVYPPNSKCTWKITVPEGKVVVLNFRFIDLESDNLCRYDFVDVYNGHANGQRIGRFCGTFRPGALVSSGNKMMVQMISDANTAGNGFMAMFSAAEPNERGDQYCGGLLDRPSGSFKTPNWPDRDYPAGVTCVWHIVAPKNQLIELKFEKFDVERDNYCRYDYVAVFNGGEVNDARRIGKYCGDSPPAPIVSERNELLIQFLSDLSLTADGFIGHYIFRPK
notes: human PCPE-2 from its beginning to amino-acid 270; an HRV 3C-protease site was inserted between amino-acids 270 and 271 of full-length human PCPE-2; Residues of the two 3C sites are probably left on both ends after cleavage; also called the CUB domains of PCPE-2; not shown: His6, N-terminal, cleaved

How the values were obtained:
Conditions in all cases: both partners purified
[1] = molecular target: T1, bone morphogenetic protein-1 (human, UniProt P13497-2 121-730); test: SPR; BMP-1 immobilised by amine coupling on CM5 (974, 1302 or 1492 RU); 10 mM HEPES pH 7.4, 0.15 M NaCl, 5 mM CaCl2, 0.05% P20, 25 °C; PCPE-2 1.56-100 nM with steady-state fit (heterogeneous ligand model for kinetics), 50 nM for comparisons
T1 construct: human BMP-1, the BMP-1 (BMP-1-1) splice variant of the BMP1 gene with CUB1-CUB2-EGF-CUB3 auxiliary domains; called full-length BMP-1 against the deletion mutants; also called BMP-1; BMP-1-1; source: Supplementary Methods
T1 sequence (looked up): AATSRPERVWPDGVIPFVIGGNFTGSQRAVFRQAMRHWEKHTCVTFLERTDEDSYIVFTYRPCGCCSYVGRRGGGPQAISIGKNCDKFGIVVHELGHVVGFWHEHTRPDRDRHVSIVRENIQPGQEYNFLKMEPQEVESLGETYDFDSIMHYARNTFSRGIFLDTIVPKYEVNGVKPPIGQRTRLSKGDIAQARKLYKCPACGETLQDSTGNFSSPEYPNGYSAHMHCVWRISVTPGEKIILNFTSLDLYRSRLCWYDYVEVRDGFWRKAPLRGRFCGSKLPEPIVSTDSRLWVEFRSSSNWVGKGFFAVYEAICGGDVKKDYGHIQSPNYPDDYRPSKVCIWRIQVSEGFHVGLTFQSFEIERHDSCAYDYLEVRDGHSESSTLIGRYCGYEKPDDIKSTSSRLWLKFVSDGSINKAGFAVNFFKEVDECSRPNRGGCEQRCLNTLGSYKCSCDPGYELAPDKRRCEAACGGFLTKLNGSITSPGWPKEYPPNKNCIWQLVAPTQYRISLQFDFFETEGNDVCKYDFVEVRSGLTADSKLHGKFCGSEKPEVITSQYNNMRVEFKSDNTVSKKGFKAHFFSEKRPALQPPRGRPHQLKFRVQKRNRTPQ

[2] = molecular target: T1, bone morphogenetic protein-1; test: enzyme inhibition assay (fluorogenic peptide cleavage); apparent; 7 nM BMP-1, 20 µM Mca-YVADAPK(Dnp)-OH, PCPE-2 0.07-690 nM, 50 mM HEPES pH 7.4, 5 mM CaCl2, 0.02% βOG, 37 °C; Morrison equation for tight-binding inhibitors with a constant for partial inhibition
[3] = molecular target: B1; test: SPR; mini-procollagen III immobilised by amine coupling on CM5 (435, 437 or 651 RU); analytes in 10 mM HEPES pH 7.4, 0.15 M NaCl, 5 mM CaCl2, 0.05% P20, 25 °C; steady-state fit for constants, 50 nM single injections for the CUB1CUB2* mutants
[4] = molecular target: T2, procollagen C-proteinase enhancer 1, native form with no His tag (human, UniProt Q15113 26-449); test: as above
T2 construct: PCPE-1, native form with no His tag, used in the SPR analyses; The activity assays used another form, PCPE-1[Cter-8His]; also called PCPE-1
T2 sequence (looked up): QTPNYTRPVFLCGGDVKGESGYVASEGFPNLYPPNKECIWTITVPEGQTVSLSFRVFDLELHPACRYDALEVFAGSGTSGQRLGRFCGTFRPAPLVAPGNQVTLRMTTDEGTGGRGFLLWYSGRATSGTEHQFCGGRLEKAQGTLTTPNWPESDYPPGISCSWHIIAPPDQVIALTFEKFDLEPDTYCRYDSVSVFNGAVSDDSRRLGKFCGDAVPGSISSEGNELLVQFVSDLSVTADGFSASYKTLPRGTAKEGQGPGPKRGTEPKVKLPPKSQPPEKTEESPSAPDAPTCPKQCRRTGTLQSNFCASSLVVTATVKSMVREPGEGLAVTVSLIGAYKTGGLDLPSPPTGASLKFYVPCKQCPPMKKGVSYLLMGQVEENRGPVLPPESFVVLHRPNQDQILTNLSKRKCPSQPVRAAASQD

[5] = molecular target: B3; test: as above

Binder: B1
- Kd [1]: 8.4 nM
- Ki [2]: 2.8 nM

- Kd [3]: 11 nM
- Kd [4]: 2.2 nM
- Kd [5]: ~30 nM
B2: mini-procollagen III (domain or fragment)
chain: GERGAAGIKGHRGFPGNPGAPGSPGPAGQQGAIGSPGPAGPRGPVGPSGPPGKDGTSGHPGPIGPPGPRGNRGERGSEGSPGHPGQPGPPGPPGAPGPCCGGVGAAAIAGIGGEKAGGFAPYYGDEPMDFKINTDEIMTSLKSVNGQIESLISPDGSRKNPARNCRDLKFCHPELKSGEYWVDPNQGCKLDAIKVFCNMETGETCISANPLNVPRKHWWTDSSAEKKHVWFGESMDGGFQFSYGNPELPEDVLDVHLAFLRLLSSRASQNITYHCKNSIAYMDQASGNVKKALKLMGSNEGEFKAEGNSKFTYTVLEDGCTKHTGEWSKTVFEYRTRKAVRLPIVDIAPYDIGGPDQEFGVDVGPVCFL
modifications: Homotrimer. The paper does not print the limits. The start assumes the last 33 Gly-X-Y triplets (helix end at 1196), recalled from earlier descriptions of this construct, followed by the intact …

Binder: B3
- binding result [1]: binds
